Earlier results on one substance are cited in PMC3514595.

The target in this data set is IL-15Rα (UniProt Q13261).
UniProt Q13261, sequence (Q13261 31-205): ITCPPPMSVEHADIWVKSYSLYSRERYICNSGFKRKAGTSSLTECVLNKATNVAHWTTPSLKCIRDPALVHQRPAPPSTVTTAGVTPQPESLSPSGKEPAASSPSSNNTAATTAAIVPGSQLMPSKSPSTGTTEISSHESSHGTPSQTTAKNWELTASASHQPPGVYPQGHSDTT

The term Kd denotes the equilibrium constant for the complex coming apart. As for IL-15 (from UniProt P40933), the Kd is 0.038 nM.
